The stoichiometry N is the number of molecules, sites or subunits per partner or assembly.

The record followed here is publication PMC5146279, “Atomic structure of the innexin-6 gap junction channel determined by cryo-EM” (Nature Communications, 2016).

Data set [1] deals with the molecule itself. The experiment in a line: cryo-EM structure; INX-6 gap junction channel by single-particle analysis, 35,608 particles, D8 symmetry, 3.6 Å; sample after GraDeR, 10 mM Tris pH 7.5, 500 mM NaCl.
Data set [2] concerns the molecule itself. The experiment in a line: cryo-EM structure; INX-6 hemichannel (docked class) by single-particle analysis, 74,398 particles, C8 symmetry, 3.3 Å; sample after GraDeR, 10 mM Tris pH 7.5, 500 mM NaCl.

B1: Caenorhabditis elegans innexin-6 (INX-6) wild type (natural protein, UniProt Q9U3N4 1-389, looked up)
chain: MASQVGAINSVNALISRVFVQPKGDLADRLNSRVTVVILAVSSALLLSSHFIGDPITCWTPAQFNAQWVNFVNQYCFVHGTYFVPLDQQLAFEEEERTKVSIQYYQWVPYVFALQAFLFYIPRFIWKAMIAYSGYDLAAAVKYVDRFWSENRDKDDKFKTRLAAFEGRPSVYIWDGIRLARKKRSRNMALFYTLSTVWQAVNAWIQFYILTQLLDSSIYTLWGPSILGDLLQGNDWQTTGHFPRIVHCDFNRRRPASVQLDTVLCVLTLNIYYEKLFIFLWFWLVFVAVVSTVNCFKWIYYLCNKTKAQKTIKNYLSTAPIKSTISDDQFFSALGEDGLFIMDQMALNLGDIPASYLTISMRNICQDFIESEDYIDEERTPFVKSIKHT
notes: Innexin-6 (INX-6), C. elegans, wild type; Eight copies form a hemichannel and 16 copies the docked gap junction channel; also called INX-6 WT; INX-6 hemichannel; source: Sf9 cells infected with recombinant virus, purified (Ni-NTA, tag digested, gel filtration, GraDeR); not shown: GFP, C-terminal, cleaved; His8, C-terminal, cleaved; copies: 16
Consider B1, for which the “stoichiometry N” value in data set [1] turned out to be 16; in data set [2], 8.
